# In patent publication US20060067886A1, “Gastrin receptor-avid peptide conjugates” (priority 1997, published 2006):
# “And” between values parts separate entries of the source, which are not always exact repeats. Equal values may be shown once.
# What was measured:
# [1] = system: PC-3 human tumor xenografts; test: in vivo
# [2] = Biodistribution of radiometal-DOTA-BBN conjugates in CF1 normal mice; details: 1 hour post-injection
# [3] = Stability of 177Lu conjugate (RCP, HPLC recovery); assay type: physicochemical; details: wide range of pH values, 24 hours
# Method: Under identical chromatographic conditions, DOTA-8-Aoc-BBN[7-14]NH2 has a retention time of 20.5 minutes, allowing for peak purification of the radiolabeled conjugate.
# To 50 μl (3.4×10^−8 mols) of DOTA-8-Aoc-BBN[7-14]NH2 in 50 μL of 0.2M Ammonium Acetate was added 150 μL of 0.4M Ammonium Acetate. To this solution was added 50 μL of 177LuCl3 (2 mCi in 0.05N HCl, Missouri University Research Reactor). The solution was allowed to incubate at […] for 1 hour, after which […] of 0.002M EDTA was added in order to scavenge uncomplexed Lutetium. Quality control of the final product was determined by reversed-phase HPLC. Peak purification of the labeled species was performed by collecting the sample from the HPLC eluant, into a solution of 1 mg/mL bovine serum albumin/0.1M Na2HPO4. All further analyses were carried out using the HPLC-purified products.
# HPLC analysis of each of the new compounds was performed using an analytical C-18 reversed phase column (Phenomenex, 250×4.6 mm, 5 μm). The mobile phase consisted of a linear gradient system, with solvent A corresponding to 100% water with 0.1% trifluoroacetic acid and solvent B corresponding to 100% acetonitrile with 0.1% trifluoroacetic acid. […]
smiles,measurement,setting,value
CSCC[C@H](NC(=O)[C@H](CC(C)C)NC(=O)[C@H](Cc1cnc[nH]1)NC(=O)CNC(=O)[C@@H](NC(=O)[C@H](C)NC(=O)[C@H](Cc1c[nH]c2ccccc12)NC(=O)[C@H](CCC(N)=O)NC(=O)CCCCCCCNC(=O)CN1CCN(CC(=O)O)CCN(CC(=O)O)CCN(CC(=O)O)CC1)C(C)C)C(N)=O [177Lu-DOTA-8-Aoc-BBN[7-14]NH2] [metal not drawn],"Avg % ID, Blood",[1]; 1 hr,0.62±0.44 % ID
same,"Avg % ID, Carcass",[1]; 1 hr,6.18 ± 1.01 % ID
same,"Avg % ID, L. Intestine",[1]; 1 hr,3.64 ± 0.72 % ID
same,"Avg % ID, Muscle",[1]; 1 hr,0.01 + 0.02 % ID
same,"Avg % ID, Pancreas",[1]; 1 hr,9.70 ± 1.12 % ID
same,"Avg % ID, S. Intestine",[1]; 1 hr,8.20 ± 1.72 % ID
same,"Avg % ID, Stomach",[1]; 1 hr,0.61 ± 0.09 % ID
same,"Avg % ID, Tumor",[1]; 1 hr,1.15 ± 0.72 % ID
same,"Avg % ID, Urine",[1]; 1 hr,67.41±2.45 % ID
same,"Avg % ID/gm, Heart",[1]; 1 hr,0.15 ± 0.22 % ID/gm
same,"Avg % ID/gm, Kidney",[1]; 1 hr,4.70 ± 0.95 % ID/gm
same,"Avg % ID/gm, L. Intestine",[1]; 1 hr,3.29 ± 0.61 % ID/gm
same,"Avg % ID/gm, Liver",[1]; 1 hr,0.30 ± 0.05 % ID/gm
same,"Avg % ID/gm, Lung",[1]; 1 hr,0.18 ± 0.09 % ID/gm
same,"Avg % ID/gm, Muscle",[1]; 1 hr,0.11 ± 0.13 % ID/gm
same,"Avg % ID/gm, Pancreas",[1]; 1 hr,38.53 ± 3.61 % ID/gm
same,"Avg % ID/gm, S. Intestine",[1]; 1 hr,5.60 ± 0.46 % ID/gm
same,"Avg % ID/gm, Spleen",[1]; 1 hr,0.33 ± 0.51 % ID/gm
same,"Avg % ID/gm, Stomach",[1]; 1 hr,1.38 ± 0.52 % ID/gm
same,"Avg % ID/gm, Tumor",[1]; 1 hr,4.22±1.09 % ID/gm
same,"Avg % ID, Blood",[1]; 4 hrs,0.12 ± 0.11 % ID
same,"Avg % ID, Carcass",[1]; 4 hrs,2.52 ± 1.18 % ID
same,"Avg % ID, Heart",[1]; 4 hrs,0.01 + 0.02 % ID
same,"Avg % ID, Kidney",[1]; 4 hrs,0.61 ± 0.08 % ID
same,"Avg % ID, L. Intestine",[1]; 4 hrs,7.28 ± 4.23 % ID
same,"Avg % ID, Liver",[1]; 4 hrs,0.15 ± 0.03 % ID
same,"Avg % ID, Lung",[1]; 4 hrs,0.05 + 0.09 % ID
same,"Avg % ID, Muscle",[1]; 4 hrs,0.02 + 0.03 % ID
same,"Avg % ID, Pancreas",[1]; 4 hrs,5.23 ± 1.68 % ID
same,"Avg % ID, S. Intestine",[1]; 4 hrs,2.51 ± 0.75 % ID
same,"Avg % ID, Spleen",[1]; 4 hrs,0.05 ± 0.02 % ID
same,"Avg % ID, Stomach",[1]; 4 hrs,0.22 ± 0.06 % ID
same,"Avg % ID, Tumor",[1]; 4 hrs,0.78 ± 0.27 % ID
same,"Avg % ID, Urine",[1]; 4 hrs,79.76 ± 6.48 % ID
same,"Avg % ID/gm, Blood",[1]; 4 hrs,0.08 ± 0.07 % ID/gm
same,"Avg % ID/gm, Heart",[1]; 4 hrs,0.07 ± 0.13 % ID/gm
same,"Avg % ID/gm, Kidney",[1]; 4 hrs,2.18 ± 0.31 % ID/gm
same,"Avg % ID/gm, L. Intestine",[1]; 4 hrs,7.29 ± 3.73 % ID/gm
same,"Avg % ID/gm, Liver",[1]; 4 hrs,0.13 ± 0.02 % ID/gm
same,"Avg % ID/gm, Lung",[1]; 4 hrs,0.11 ± 0.15 % ID/gm
same,"Avg % ID/gm, Muscle",[1]; 4 hrs,0.15 ± 0.21 % ID/gm
same,"Avg % ID/gm, Pancreas",[1]; 4 hrs,22.18 ± 4.66 % ID/gm
same,"Avg % ID/gm, S. Intestine",[1]; 4 hrs,1.93 ± 0.96 % ID/gm
same,"Avg % ID/gm, Spleen",[1]; 4 hrs,0.60 ± 0.36 % ID/gm
same,"Avg % ID/gm, Stomach",[1]; 4 hrs,0.34 ± 0.34 % ID/gm
same,"Avg % ID/gm, Tumor",[1]; 4 hrs,3.03±0.91 % ID/gm
same,"Avg % ID, Blood",[1]; 24 hrs,0.01 + 0.02 % ID
same,"Avg % ID, Carcass",[1]; 24 hrs,2.08 + 3.14 % ID
same,"Avg % ID, Kidney",[1]; 24 hrs,0.17 ± 0.06 % ID
same,"Avg % ID, L. Intestine",[1]; 24 hrs,1.75 ± 0.23 % ID
same,"Avg % ID, Muscle",[1]; 24 hrs,0.02 + 0.03 % ID
same,"Avg % ID, Pancreas",[1]; 24 hrs,1.31 ± 0.45 % ID
same,"Avg % ID, S. Intestine",[1]; 24 hrs,0.67 ± 0.12 % ID
same,"Avg % ID, Spleen",[1]; 24 hrs,0.01 + 0.01 % ID
same,"Avg % ID, Stomach",[1]; 24 hrs,0.09 ± 0.06 % ID
same,"Avg % ID, Tumor",[1]; 24 hrs,0.29 ± 0.18 % ID
same,"Avg % ID, Urine",[1]; 24 hrs,85.9±1.4 % ID and 85.85 ± 1.39 % ID
same,"Avg % ID/gm, Blood",[1]; 24 hrs,0.01 ± 0.01 % ID/gm
same,"Avg % ID/gm, Heart",[1]; 24 hrs,0.06 ± 0.09 % ID/gm
same,"Avg % ID/gm, Kidney",[1]; 24 hrs,0.60 ± 0.20 % ID/gm
same,"Avg % ID/gm, L. Intestine",[1]; 24 hrs,1.90 ± 0.53 % ID/gm
same,"Avg % ID/gm, Lung",[1]; 24 hrs,0.14 ± 0.26 % ID/gm
same,"Avg % ID/gm, Muscle",[1]; 24 hrs,0.10 ± 0.17 % ID/gm
same,"Avg % ID/gm, Pancreas",[1]; 24 hrs,4.97 ± 2.28 % ID/gm
same,"Avg % ID/gm, S. Intestine",[1]; 24 hrs,0.48 ± 0.14 % ID/gm
same,"Avg % ID/gm, Spleen",[1]; 24 hrs,0.08 ± 0.10 % ID/gm
same,"Avg % ID/gm, Stomach",[1]; 24 hrs,0.19 ± 0.13 % ID/gm
same,"Avg % ID/gm, Tumor",[1]; 24 hrs,1.54±1.14 % ID/gm
same,"Avg % ID, Blood",[2],0.20 ± 0.15 % ID
same,"Avg % ID, Carcass",[2],4.95 ± 1.41 % ID
same,"Avg % ID, Heart",[2],0.02 ± 0.04 % ID
same,"Avg % ID, Kidney",[2],1.62 ± 0.14 % ID
same,"Avg % ID, L. Intestine",[2],4.63 ± 0.57 % ID
same,"Avg % ID, Liver",[2],0.31 ± 0.05 % ID
same,"Avg % ID, Muscle",[2],0.02 ± 0.05 % ID
same,"Avg % ID, Pancreas",[2],7.01 ± 1.42 % ID
same,"Avg % ID, S. Intestine",[2],9.55 ± 2.37 % ID
same,"Avg % ID, Spleen",[2],0.16 ± 0.05 % ID
same,"Avg % ID, Stomach",[2],0.51 ± 0.15 % ID
same,"Avg % ID/gm, Blood",[2],0.14 ± 0.10 % ID/gm
same,"Avg % ID/gm, Heart",[2],0.19 ± 0.36 % ID/gm
same,"Avg % ID/gm, Kidney",[2],4.97 ± 0.71 % ID/gm
same,"Avg % ID/gm, L. Intestine",[2],6.17 ± 0.79 % ID/gm
same,"Avg % ID/gm, Liver",[2],0.23 ± 0.05 % ID/gm
same,"Avg % ID/gm, Lung",[2],0.20 ± 0.21 % ID/gm
same,"Avg % ID/gm, Muscle",[2],0.17 ± 0.39 % ID/gm
same,"Avg % ID/gm, Pancreas",[2],30.83 ± 1.89 % ID/gm
same,"Avg % ID/gm, S. Intestine",[2],6.47 ± 1.24 % ID/gm
same,"Avg % ID/gm, Spleen",[2],1.23 ± 0.59 % ID/gm
same,"Avg % ID/gm, Stomach",[2],1.41 ± 0.44 % ID/gm
same,stability of the conjugate (RCP),[3],stability of the conjugate over a wide range of pH values over a time course of 24 hours
